According to patent publication CN114989291A (ZHEJIANG ANWEILUO DIAGNOSTIC TECH CO LTD, dated 2022):
Where “and” joins values, the source holds several entries; their conditions need not be identical. Identical values can stand only once. Like-named read-outs stand apart in the source and are kept apart here.

Key:
[1] = target: SARS-CoV-2真病毒的S蛋白 (SARS-CoV-2, UniProt P0DTC2 14-1273); assay: cell-based or functional assay
[2] = target: T1, 全长SARS-CoV-2 S蛋白 (野生型, IVCAS 6.7512, GenBank ID: QHD43416.1) (SARS-CoV-2, UniProt P0DTC2 14-1273); assay: cell-based or functional assay
[3] = target: 重组的RBD抗原 (SARS-CoV-2 Spike糖蛋白的RBD区域) (SARS-CoV-2, UniProt P0DTC2 319-541)
[4] = target: T1, 全长SARS-CoV-2 S蛋白 (野生型, IVCAS 6.7512, …); assay: cell-based or functional assay; remark: listed apart in the source

B1: 抗SARS-CoV-2全人源化单克隆抗体1B3 (antibody, V domains shown)
VH: VQLVESGGGVVQPGRSLRLSCAASGFTFSSYAMHWVRQAPGKGLEWVAVISYDGSNKYYADSVKGRFTISRDNSKNTLYLQMNSLRAEDTAVYYCAKVAGGPYYYDSSGRDWYFDLWGRGTLVTVSA
VL: DIQMTQSPSSLSASVGDRVSITCRASQSISSFLNWFQQKPGKAPNLLIYAASSLESGVPSRFSGSGSGTDFTLTISSLQPEDFATYYCQQSYSAPPTFGQGTRLEIKR
EC50, 真病毒感染的细胞模型中和活性 (Vero E6, 结晶紫细胞活率) [1]: 16.4 μg/ml and 109 nM | EC50, 假病毒细胞模型中和活性 (luciferase, ACE2-293T细胞) [2]: 25.6 nM | EC50 [3]: 0.0134 µg/mL | EC50, 假病毒细胞模型中和活性 (luciferase, ACE2-293T细胞) [4]: 3.86 µg/mL
